The target of test [1] is VB1-008 monoclonal antibody. The experiment in a line: peptide in molar excess (20× to 200×) against 0.5 µM VB1-008, flow cytometry on MDA-MB-435S cells.
In test [2] the target is Peptide 2 (Biotin-…) (human). The experiment in a line: ELISA on peptide-coated plates, 75 µg/mL VB1-008; reference Peptide 3.

Where no end group is shown, it is not given here. The star is where a group is joined. Biotin = O=C1N[C@H]2[C@H](CS[C@H]2CCCCC(=O)*)N1

In the case of Biotin-RIPATNMDSSH [Peptide 2 (Biotin-…)], the competition efficiency in test [1] was 60%.

Turning to Biotin-ATNMDSSHSIT [Peptide 3 (Biotin-…)], the competition efficiency in test [1] turned out to be 96%.

B1: VB1-008 monoclonal antibody (antibody, V domains shown)
VH: QVQLQELGPRLVRPSQTLILTCTVSGGSVSGDEYYWSWLRQTPGKGLEWIGYMSYRGSSYYSPSLQSRVTIAVDRSKNEFSLKLTSVTAADAAVYFCARKYCGGDCRSGFDIWGRGTMVTVAS
VL: YELTQPPSVSVSPGQKAFITCSGDNLGNKYVCWYQQKPGQSPVLVIYEDTKRPSGIPERFSASNSGNTATLTISGTQPIDEADYYCQAWDSRTEIFGTGTKVTVLS
In test [2], B1 had a percent of the binding observed with Peptide 3 of 50 to 60%.

Values taken from patent publication US8383117.
